Laboratory results: article PMC4791852 (mBio, 2016)

Target: T1, Ebola virus GPCL trimer (thermolysin-cleaved, purified GP ectodomain) (Ebola virus (Zaire ebolavirus); GP1 …)
T1 chain 1: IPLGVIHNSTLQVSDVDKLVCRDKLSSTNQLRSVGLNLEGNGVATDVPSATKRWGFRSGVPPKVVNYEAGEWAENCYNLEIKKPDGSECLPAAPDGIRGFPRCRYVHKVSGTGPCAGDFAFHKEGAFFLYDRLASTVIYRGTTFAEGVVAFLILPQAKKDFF
T1 chain 2: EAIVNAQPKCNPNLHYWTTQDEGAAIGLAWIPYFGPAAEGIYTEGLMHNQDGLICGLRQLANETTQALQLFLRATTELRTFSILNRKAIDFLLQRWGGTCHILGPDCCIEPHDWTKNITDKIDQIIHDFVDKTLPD
Assay: crystal structure

B1: KZ52 Fab (Fab, V domains shown)
VH: EVQLLESGGGLVKPGGSLRLSCAASGFTLINYRMNWVRQAPGKGLEWVSSISSSSSYIHYADSVKGRFTISRDNAENSLYLQMNSLRAEDTAVYYCVREGPRATGYSMADVFDIWGQGTMVTVSS
VL: not shown
Question: Does B1 bind?
Answer: Result: binds
